Tested on: osteoclastic cells
Experiment: Release of soluble EfnB2 into CM by osteoclastic cells (Western blots)
Format: cell-based
Excerpt: Regarding the EfnB2, EfnB2 on the plasma membrane of osteoclasts binds the EphB4 receptor on the cell surface of nearby osteoprogenitors to trigger the EfnB2-EphB4 bidirectional signaling, which on the one hand suppresses osteoclastic resorption through activation of the reverse signaling of EfnB2 in osteoclasts and on the other hand upregulates the EphB4 forward signaling in osteoblasts to stimulate osteoblast maturation and activity. However, this bidirectional signaling mechanism requires direct cell-cell contact between osteoclasts and osteoprogenitors. Given the fact that very few osteoblasts or progenitors are present at the remodeling site that could make direct contact with the resorbing osteoclast, this cell-cell contact-dependent bidirectional mechanism is unlikely a major mechanism for the coupled bone formation under normal situations. It also could not be responsible for the soluble osteoanabolic activity of osteoclasts. […] Treatment with EfnA4-fc or PTH increased its releases each by ~75% and the large majority of the released EfnB2 was associated with the MV fraction. As an initial test of the possibility that EfnB2 is a candidate for an osteoanabolic component, it was tested whether the osteogenic activity of CM or that of MV could be blocked by pretreatment with anti-EfnB2 antibody. […]

B1: PTH: used to increase bone turnover / stimulate bone remodeling (protein, UniProt P01270 32-115, looked up)
Parathyroid hormone: SVSEIQLMHNLGKHLNSMERVEWLRKKLQDVHNFVALGAPLAPRDAGSQRPRKKEDNVLVESHEKSLGEADKADVNVLTKAKSQ
modifications: Parathyroid hormone
notes: used to increase bone turnover / stimulate bone remodeling
  increase of release of soluble EfnB2: ~ 75%
